These results are taken from patent publication US20100196385A1 (AstraZeneca / MedImmune, published 2010).

B1: 9G8 (antibody, IgG4, V domains shown)
VH: QLQLQESGPGLVKPSETLSLSCTVSGGSISSSSSYWGLIRQPPGKGLEWIGSIYYSGSTYYSPSLKSRVSISVDTSKNQFSLKLSSVTAADTAVYFCARQGYGGHPDVFDIWGQGTMVTVSS
VL: SSELTQSPSVSVSPGQTARITCSGDKLGDVYVCWYQQKTGQSPVLVIYEDTKRPSGIPERFSGSNSGNTATLTISGTQVMDEADYYCQAWDSTTAVIFGGGTKLTVL
notes: Fully human; used for IgG4 rows and where no isotype is printed; also called 9G8 IgG4
B2: 4B4 (antibody, IgG4, V domains shown)
VH: QVLLIQSGAEVKKPGASVQVSCKASGYTFTNYGVIWVRQAPGQGLEYMGWISAYNGNTNYAQKLQDRVTMTSDTSTTTAYMELRSLRSDDTAVYYCARELGSSFDYWGQGTLVTVSS
VL: SYELTQPPSVSVSPGQTARITCSGDALPKKYAYWYQQKSGQAPVLVIYEDIKRPSGIPERFSGSSSGTMATLTISGAQVEDEADYYCFSTDNSGDHSVFGGGTKLTVL
notes: Fully human; used for IgG4 rows and where no isotype is printed; also called 4B4 IgG4; 4B4.1
B3: 2H10 (antibody, IgG4, V domains shown)
VH: QVQLVESGGGVVQPGRSLRLSCAASGFTFSRHGMHWVRQAPGKGLEWVAVVWFDGSNIYYADSVKGRFTISRDNSKNTLYLQMNSLRAEDTAMYYCARDSRIAAADYWGQGTLVTVSS
VL: SYELTQPPSVSVSPGQTVSITCSGDKLGDKYVCWYQQKPGQSPVLVIYQESKRPSGIPERFSGSSSGNTATLTISGTQAMDEADYYCQTWDSSLVVFGGGTKLTVL
notes: Fully human; used for IgG4 rows and where no isotype is printed; also called 2H10 IgG4
B4: 21H3 (antibody, IgG4, V domains shown)
VH: QVQLVQSGAEVKKPGASVKVSCKASGYTFTNYGITWVRQAPGQGPEWMGWISAYNGNTNYAQKLQDRVTVTTDTSTSTAYMELRSLRSDDTAVYYCARDRVPRIPVTTEAFDIWGQGTMVTVSS
VL: QSVLTQPPSASGTPGQRVTISCSGSSSNIGSYFVYWYQQLPGTAPKLLIYRNNQRPSGVPDRFSGSESGTSASLAISGLRSEDEADYYCAAWDDSLSGHWVFGGGTRLTVL
notes: Fully human; used for IgG4 rows and where no isotype is printed; also called 21H3 IgG4

By Kd is commonly meant the equilibrium constant for the complex coming apart. Read a low Kd as higher affinity. In general, IC50 refers to the concentration that inhibits the measured activity by half. Low readings indicate higher potency, high ones lower potency.

T1 sequence (P78504 34-1218): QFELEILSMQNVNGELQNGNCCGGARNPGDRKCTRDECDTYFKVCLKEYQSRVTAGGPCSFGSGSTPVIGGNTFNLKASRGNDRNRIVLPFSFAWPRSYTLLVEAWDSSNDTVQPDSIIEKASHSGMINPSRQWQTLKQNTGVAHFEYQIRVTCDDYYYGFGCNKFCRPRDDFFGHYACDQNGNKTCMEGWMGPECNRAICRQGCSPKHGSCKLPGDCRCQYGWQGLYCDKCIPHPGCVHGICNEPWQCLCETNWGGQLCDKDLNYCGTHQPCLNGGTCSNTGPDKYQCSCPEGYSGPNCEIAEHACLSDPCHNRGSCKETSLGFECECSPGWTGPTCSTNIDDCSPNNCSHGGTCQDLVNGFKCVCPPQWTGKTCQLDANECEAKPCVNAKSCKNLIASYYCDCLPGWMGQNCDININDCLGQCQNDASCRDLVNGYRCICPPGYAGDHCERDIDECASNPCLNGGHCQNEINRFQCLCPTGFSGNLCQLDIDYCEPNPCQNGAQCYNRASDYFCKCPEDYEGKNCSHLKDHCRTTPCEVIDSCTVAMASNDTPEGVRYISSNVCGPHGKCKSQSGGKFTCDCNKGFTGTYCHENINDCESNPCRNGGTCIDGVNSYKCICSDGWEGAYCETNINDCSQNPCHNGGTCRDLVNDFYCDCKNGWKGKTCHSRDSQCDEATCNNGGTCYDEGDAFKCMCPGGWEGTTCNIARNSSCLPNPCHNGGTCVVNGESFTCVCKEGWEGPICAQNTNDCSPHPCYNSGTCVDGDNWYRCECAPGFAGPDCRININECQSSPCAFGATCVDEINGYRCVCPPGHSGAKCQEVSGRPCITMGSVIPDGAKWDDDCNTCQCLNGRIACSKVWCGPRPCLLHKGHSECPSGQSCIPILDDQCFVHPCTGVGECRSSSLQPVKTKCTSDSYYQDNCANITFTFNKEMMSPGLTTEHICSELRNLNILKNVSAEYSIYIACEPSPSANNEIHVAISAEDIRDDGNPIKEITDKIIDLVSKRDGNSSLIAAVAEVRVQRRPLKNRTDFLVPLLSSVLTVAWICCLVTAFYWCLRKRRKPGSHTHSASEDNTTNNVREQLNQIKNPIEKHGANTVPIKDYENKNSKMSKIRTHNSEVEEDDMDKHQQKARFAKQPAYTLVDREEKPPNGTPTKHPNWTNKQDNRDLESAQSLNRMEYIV

One assay has as its target T1, human Jagged1 (human, UniProt P78504 34-1218).
T1 construct: whole, on cells
Kind of assay: FMAT, hybridoma supernatant, 293T cells with human Jagged1. A digest of the protocol:
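Transfected 293T cells (3000 expressing plus 15000 mock-transfected per well), in PBS with 2% FBS, were mixed with hybridoma supernatant and Cy5 goat anti-human IgG Fc (750 ng/ml final). After 3 h at room temperature, binding was read by FMAT fluorescence. Notch1/Fc served as positive control for DLL4 and Notch3/Fc for Jagged1.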
The molecule B1 yielded a Count of 0, an FL1 of 0 and an FL1 x count of 0.

Molecule B2 displayed a Count of 2, an FL1 of 2590 and an FL1 x count of 5180.

Regarding B3, the Count was 5, the FL1 was found to be 5030 and the FL1 x count was 25200.

The molecule B4 came in with a Count of 0, an FL1 of 0 and an FL1 x count of 0.

A further assay addresses T2, human Dll1 (human, UniProt O00548 18-723).
T2 construct: whole, on cells
T2 sequence (looked up): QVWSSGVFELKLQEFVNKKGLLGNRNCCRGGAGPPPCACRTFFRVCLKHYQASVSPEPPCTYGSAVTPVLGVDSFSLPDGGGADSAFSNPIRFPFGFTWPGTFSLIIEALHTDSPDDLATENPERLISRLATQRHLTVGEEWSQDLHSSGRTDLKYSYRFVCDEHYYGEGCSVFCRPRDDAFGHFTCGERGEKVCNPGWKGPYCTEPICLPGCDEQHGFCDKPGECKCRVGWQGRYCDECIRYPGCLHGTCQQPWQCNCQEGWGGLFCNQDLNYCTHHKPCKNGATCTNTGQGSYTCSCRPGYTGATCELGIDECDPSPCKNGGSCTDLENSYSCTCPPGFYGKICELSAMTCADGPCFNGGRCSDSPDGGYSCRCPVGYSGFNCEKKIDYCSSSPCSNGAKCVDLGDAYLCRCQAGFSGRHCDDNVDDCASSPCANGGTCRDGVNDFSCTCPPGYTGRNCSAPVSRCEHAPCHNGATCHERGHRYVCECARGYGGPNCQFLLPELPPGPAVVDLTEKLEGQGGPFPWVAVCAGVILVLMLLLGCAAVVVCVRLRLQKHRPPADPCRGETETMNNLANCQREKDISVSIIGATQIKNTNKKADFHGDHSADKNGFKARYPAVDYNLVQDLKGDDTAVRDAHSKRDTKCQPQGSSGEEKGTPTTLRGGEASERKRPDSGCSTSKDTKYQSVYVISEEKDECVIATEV
Kind of assay: FACS, 15 µg/ml, 293T cells with human Dll1. A digest of the protocol: (§1)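 Read-out is the change in geometric mean fluorescence between mock-transfected and Jagged1- or Dll1-transfected cells. Anti-DLL4 antibodies bound to cells suspended in PBS containing 2% FCS during a 1 h incubation at 4 °C.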
As for B1, the “Dll1/293T X Geo mean” value amounted to 32.3.

With B2, the “Dll1/293T X Geo mean” value was 25.9.

With B3, the “Dll1/293T X Geo mean” value was 44.1.

With B4, the “Dll1/293T X Geo mean” value is 32.4.

The target in another assay is T3, full length human DLL4 (human, UniProt Q9NR61 27-685).
T3 construct: whole, on cells; also called native DLL4 expressed in HEK293 cells
T3 sequence (Q9NR61 27-685): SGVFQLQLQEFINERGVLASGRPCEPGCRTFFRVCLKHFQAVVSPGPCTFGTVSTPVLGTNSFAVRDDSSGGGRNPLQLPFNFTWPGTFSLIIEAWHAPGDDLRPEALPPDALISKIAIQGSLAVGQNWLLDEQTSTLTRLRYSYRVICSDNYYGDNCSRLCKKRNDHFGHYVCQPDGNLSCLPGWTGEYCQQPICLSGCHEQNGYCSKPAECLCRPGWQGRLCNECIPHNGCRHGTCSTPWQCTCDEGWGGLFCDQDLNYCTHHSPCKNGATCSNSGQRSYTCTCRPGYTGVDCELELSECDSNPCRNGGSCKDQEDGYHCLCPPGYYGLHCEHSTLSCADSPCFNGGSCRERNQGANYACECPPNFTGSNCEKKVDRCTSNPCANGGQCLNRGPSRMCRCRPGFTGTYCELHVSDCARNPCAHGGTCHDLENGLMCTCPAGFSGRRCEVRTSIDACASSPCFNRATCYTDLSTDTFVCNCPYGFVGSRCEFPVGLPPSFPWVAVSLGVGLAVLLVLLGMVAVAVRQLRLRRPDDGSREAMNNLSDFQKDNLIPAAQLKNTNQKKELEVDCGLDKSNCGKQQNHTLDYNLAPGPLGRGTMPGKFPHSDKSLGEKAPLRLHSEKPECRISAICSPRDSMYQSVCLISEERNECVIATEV
As to the kind of experiment: FACS titration, HEK293 cells with human DLL4. A digest of the protocol:
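Antibody titration on HEK293 cells expressing full-length human DLL4, detected with anti-human IgG-Fc-Cy5 plus 7AAD for 30 minutes at 4° C. by flow cytometry. KD estimated by nonlinear fit of mean fluorescence vs total mAb concentration, with receptor number, background and proportionality constant floating.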
B1 yielded an equilibrium dissociation constant (Kd) of 0.999 nM.

Take B2: the affinity, expressed as Kd, was 0.516 nM.

For B3, the affinity, expressed as Kd, was 0.882 nM.

The molecule B4 displayed a dissociation constant Kd of 0.359 nM.

The target of the next assay is T3, full length human DLL4. Kind of assay: FACS competition, unlabeled antibody vs competitor Alexa-647 21H3RK, HEK293 cells with human DLL4. As to the method: The ability of the purified DLL4 antibodies to inhibit the binding of other DLL4 antibodies to human DLL4 was assessed using a FACS assay. Briefly, antibodies were directly labelled with Alexa-647 using a commercially available labelling kit (e.g. Molecular Probes catalog #A30009, A-20186) as per the manufacturer's instructions. To determine the level of cross-competition, unlabelled anti-DLL4 antibodies (final concentration: 10-0.01 μg/ml) diluted in PBS containing 2% FCS were added to DLL4-expressing HEK 293 cells (as described in example 6; 50000 cells/well diluted in PBS containing 2% FCS) and incubated for 1 h at 4° C. Subsequently, Alexa-647 labeled anti-DLL4 antibodies were added at a final concentration of 0.1 μg/ml and plates were incubated for a further 1 h at 4° C. prior to washing and reading on a FACSCalibur instrument. Data that summarizes the ability of unlabeled antibodies (10, 1, 0.1 μg/ml) to compete with labeled 21H3RK for binding to human DLL4 is included in FIG. 3. Additional data that summarizes the ability of unlabeled antibodies to compete with labeled 21H3RK and 4B4 for binding to human DLL4 is included in Table 22.
With B1, the IC50 came out at 0.596 µg/mL.

In the case of B2, the half-maximal inhibitory concentration (IC50) is 0.379 µg/mL.

B3 displayed an IC50 of 0.723 µg/mL.

For B4, the IC50 amounted to 0.248 µg/mL.

Another assay concerns the target T2, human Dll1. As to the kind of experiment: FACS, 15 µg/ml, 293T cells with human Dll1 vs mock. A digest of the protocol:
as §1
(In general: Flow cytometry measures light scatter and fluorescence of single cells or particles in a stream.)
As to B1, the Dll1/mock ratio was determined as 1.23.

With B2, the Dll1/mock ratio amounted to 1.23.

For the molecule B3, the Dll1/mock ratio was found to be 1.1.

In the case of B4, the Dll1/mock ratio was found to be 1.16.
